Blank lines part the entries; values can stand above or below the molecule they belong to.
What was measured:
[1] = target: 20β-hydroxysteroid dehydrogenase (20β-HSDH) from Butyricicoccus desmolans ATCC 43058 (Butyricicoccus desmolans ATCC 43058); test: SEC; Superdex 200 analytical column, 4°C; 50 mM Tris-Cl, 300 mM NaCl, 10% glycerol, 10 mM 2-mercaptoethanol, 0.1% Triton X-100, pH 7.5; native mass from retention volume against standard proteins, divided by the subunit mass from SDS-PAGE
[2] = substrate: C[C@]12CCC(=O)C=C1CC[C@@H]1[C@@H]2[C@@H](O)C[C@@]2(C)[C@H]1CC[C@]2(O)C(=O)CO; test: purified protein; type: biochemical, Agathobaculum desmolans; conditions: reductive direction, saturating NADH, 0.05 μM enzyme, standard assay 50 mM phosphate pH 7.5, temperature not stated for Km

- stoichiometry N [1]: 3.96
Molecule: 20β-hydroxysteroid dehydrogenase (20β-HSDH) from Butyricicoccus desmolans ATCC 43058 (enzyme)

B1: 20β-HSDH (r20β-HSDH, desE) of B. desmolans ATCC 43058 (Agathobaculum desmolans ATCC 43058) (protein)
chain: MAEEFYAVYPKDAWKDPSYRLMDKFSLKGKKGFVTGGGGGIGRNTAAAWAEAGADVALVDIPASKDRLEPLAKEMSERYGVKVVPLYCDVSDEEQVNALKDDLIRELGTVDFAHINAGVCLMGDDVDVPYSTWKKVIDIDLNGAFMTAQVAQQIMREHNHGGSIIMTSSLSGYNANFIGGGPSPVCAYGTAKAGISQLARYMGAGLAPYGIRVNTISPGYIWSGIHEGVMDKAGHDMCLEVVPIKRFGRTDELQGVMLFLASEASSYITGINIPVDGGYSIF
notes: N-terminal Strep-tag from pET-51b(+), E. coli BL21-CodonPlus(DE3) RIPL
- Km [2]: 0.80 ± 0.06 µM
- Vmax [2]: 30.4 µmol/min
